Paper PMC8924000 (2022)

Target: recombinant YBX1 with a C-terminal 6×His tag (UniProt P67809 1-324)
Experiment: BLI

Sequence of recombinant YBX1 with a C-terminal 6×His tag (P67809 whole entry): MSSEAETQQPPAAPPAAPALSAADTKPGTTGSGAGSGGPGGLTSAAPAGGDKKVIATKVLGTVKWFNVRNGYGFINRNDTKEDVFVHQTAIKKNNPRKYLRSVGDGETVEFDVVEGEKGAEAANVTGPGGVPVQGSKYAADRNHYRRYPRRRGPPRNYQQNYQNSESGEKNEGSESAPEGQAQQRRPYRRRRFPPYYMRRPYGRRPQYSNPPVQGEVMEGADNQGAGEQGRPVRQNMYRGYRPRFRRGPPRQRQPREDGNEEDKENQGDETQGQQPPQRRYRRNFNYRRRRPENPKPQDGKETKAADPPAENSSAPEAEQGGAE

Kd: 0.0248 nM
B1: recombinant GSDME with a C-terminal 6×His tag (natural protein)
chain: MFAKATRNFLREVDADGDLIAVSNLNDSDKLQLLSLVTKKKRFWCWQRPKYQFLSLTLGDVLIEDQFPSPVVVESDFVKYEGKFANHVSGTLETALGKVKLNLGGSSRVESQSSFGTLRKQEVDLQQLIRDSAERTINLRNPVLQQVLEGRNEVLCVLTQKITTMQKCVISEHMQVEEKCGGIVGIQTKTVQVSATEDGNVTKDSNVVLEIPAATTIAYGVIELYVKLDGQFEFCLLRGKQGGFENKKRIDSVYLDPLVFREFAFIDMPDAAHGISSQDGPLSVLKQATLLLERNFHPFAELPEPQQTALSDIFQAVLFDDELLMVLEPVCDDLVSGLSPTVAVLGELKPRQQQDLVAFLQLVGCSLQGGCPGPEDAGSKQLFMTAYFLVSALAEMPDSAAALLGTCCKLQIIPTLCHLLRALSDDGVSDLEDPTLTPLKDTERFGIVQRLFASADISLERLKSSVKAVILKDSKVFPLLLCITLNGLCALGREHS
